The values below come from patent publication US6479638.

Assay [1] has as its target DNAX Leukocyte Associated Immunoglobulin-like Receptor (DLAIR-1) (human) (UniProt Q6GTX8). Description: flow cytometry (FACScan) on U937 myeloid tumor cells, PE goat-anti-mouse-IgG second step.
The target is the same in assay [2]. The assay can be described thus: flow cytometry (FACScan) on Peer T cell tumor cells, PE goat-anti-mouse-IgG second step. On the technique in general: In flow cytometry, cells or beads pass a laser one at a time.
Assay [3] shares this target. Description: flow cytometry (FACScan) on Jurkat T cell tumor cells, PE goat-anti-mouse-IgG second step.
Assay [4] has the same target. The assay can be described thus: flow cytometry (FACScan) on HL60 promyeloid tumor cells, PE goat-anti-mouse-IgG second step.
Assay [5] shares this target. The assay can be described thus: flow cytometry (FACScan) on CEM T cell tumor cells, PE goat-anti-mouse-IgG second step.
For assay [6] the target is unchanged. Description: flow cytometry (FACScan) on Molt4 T cell tumor cells, PE goat-anti-mouse-IgG second step.
The target is the same in assay [7]. The assay can be described thus: flow cytometry (FACScan) on HUT78 T cell tumor cells, PE goat-anti-mouse-IgG second step.

As for control IgG1 (antibody), the mean fluorescence intensity in assay [1], in assay [2], in assay [3], in assay [4], in assay [5] and in assay [6] was < 5 throughout.

Turning to DX26 monoclonal antibody, the mean fluorescence intensity amounted to 25.8 in assay [7]; 49.5 in assay [1]; 29.1 in assay [2]; 47.1 in assay [3]; 46.9 in assay [4]; 92.7 in assay [5]. In assay [6], this substance yielded a mean fluorescence intensity of 30.7.
